Target: CD19-Fc (CD19-IgG1 Fc fusion protein) (UniProt P15391)
Assay: flow cytometry on cells
Conditions: for response (% Normalized Binding): n=3 independent donor replicates, untransduced background subtracted, normalized for % CAR-expressing T-cells, read off a plot; for response (% of cells in CD19-Fc binding gate): one representative example, untransduced 2%, not normalized, CD19-Fc concentration not stated for this panel, parent: 46
[1] = CD19-Fc 1.0µg/mL, parent: est. 73
[2] = CD19-Fc 0.5µg/mL, parent: est. 65

Substance | response (% Normalized Binding) [1] | response (% of cells in CD19-Fc binding gate) (myc+ 47% (parent F-2 myc+ 43%)) | response (% of cells in CD19-Fc binding gate) (myc+ 49% (parent F-2 myc+ 43%)) | response (% Normalized Binding) [2] | response (% of cells in CD19-Fc binding gate) (myc+ 78% (parent F-2 myc+ 43%)) | response (% of cells in CD19-Fc binding gate) (myc+ 43% (parent F-2 myc+ 43%)) | response (% of cells in CD19-Fc binding gate) (myc+ 46% (parent F-2 myc+ 43%))
F-2 second generation (CD28+CD3ζ) CAR with the unmodified FMC63 scFv Y04: VH CDR3 …>… (Y>A at CDR3 position 8) | 65 |  |  | 41 | 28 |  | 
F-2 second generation (CD28+CD3ζ) CAR with the unmodified FMC63 scFv Y03: VH CDR3 …>… (Y>A at CDR3 position 4) | 8.6 |  |  | 1.2 |  | 4 | 
F-2 second generation (CD28+CD3ζ) CAR with the unmodified FMC63 scFv Y05: VH CDR3 …>… (Y>A at CDR3 position 12) | 100 |  |  | 70 |  |  | 64

Other lines, results leading:

response (% Normalized Binding) [1] | response (% of cells in CD19-Fc binding gate) (myc+ 47% (parent F-2 myc+ 43%)) | response (% of cells in CD19-Fc binding gate) (myc+ 49% (parent F-2 myc+ 43%)) | response (% Normalized Binding) [2] | response (% of cells in CD19-Fc binding gate) (myc+ 78% (parent F-2 myc+ 43%)) | response (% of cells in CD19-Fc binding gate) (myc+ 43% (parent F-2 myc+ 43%)) | response (% of cells in CD19-Fc binding gate) (myc+ 46% (parent F-2 myc+ 43%)) | Substance
5.6 | 2 |  |  |  |  |  | F-2 second generation (CD28+CD3ζ) CAR with the unmodified FMC63 scFv G02: VH CDR3 …>… (G>A at CDR3 position 6)
4.4 |  | 2 |  |  |  |  | F-2 second generation (CD28+CD3ζ) CAR with the unmodified FMC63 scFv G01: VH CDR3 …>… (G>A at CDR3 position 5)

— paper PMC8863855
